For one protein, Km, kcat and kcat/Km results are on record in article PMC4200780, “Biochemical Characterization of a Carboxylesterase from the Archaeon Pyrobaculum sp. 1860 and a Rational Explanation of Its Substrate Specificity and Thermostability” (International Journal of Molecular Sciences, 2014).

Holding throughout (experiment): p-nitrophenol release, Lineweaver-Burk
Holding throughout (type): biochemical, Pyrobaculum ferrireducens

Substrate in data set [1]: CC(=O)Oc1ccc([N+](=O)[O-])cc1
The settings on record: 50 mM Tris-HCl pH 9.0, 80 °C. The text has this:
(§1) p-nitrophenol release, Lineweaver-Burk on rP186_1588 ([…]_1588)

Substrate in data set [2]: CCCC(=O)Oc1ccc([N+](=O)[O-])cc1
The conditions noted are these: 50 mM Tris-HCl pH 9.0, 80 °C.
Source text: as §1

Substrate in data set [3]: CCCCCCCC(=O)Oc1ccc([N+](=O)[O-])cc1
The conditions noted are these: 50 mM Tris-HCl pH 9.0, 80 °C.
Source text: as §1

Substrate in data set [4]: CCCCCCCCCC(=O)Oc1ccc([N+](=O)[O-])cc1
The conditions noted are these: 50 mM Tris-HCl pH 9.0, 80 °C, substrate tested at 0.1-3 mM only.
Source text: as §1

B1: rP186_1588 (P186_1588) (Pyrobaculum ferrireducens) (protein)
chain: MSEKYVAVEGRRVRYLVGGSGRPVVLLHGWSFNADTWVESGVFNSLAGHFAVYAIDMPYGIRTKSERFQAPRREYAVFLRRVLDALDLADPPLVGPSASGEVVLWYVAKRLPTRAAVVVGPVGLAGELLEELRGAGVPILAVWGEGDEVSPPSRASLLRDVAKVVILRDAGHAAYLDKPGEFVEVVLDFLRGVY
notes: full length 194 aa (21,131 Da calculated, ~23 kDa on SDS-PAGE), His-tagged, synthetic gene in pET-28a(+) NdeI/BamHI, E. coli BL21(DE3), Ni-NTA purified, tag removal not mentioned
As to B1, the Michaelis-Menten constant (Km) in data set [1] was 350 ± 10 µM; in data set [2], 1270 ± 40 µM; in data set [3], 2640 ± 140 µM; in data set [4], 4990 ± 210 µM. The turnover number (kcat) in data set [1] came out at 11.7 ± 0.48 s⁻¹; in data set [2], 9.12 ± 0.62 s⁻¹; in data set [3] it was 6.36 ± 0.28 s⁻¹; in data set [4], 6.19 ± 0.33 s⁻¹. The kcat/Km worked out at 33300 ± 1370 M⁻¹ s⁻¹ in data set [1], 7180 ± 190 M⁻¹ s⁻¹ in data set [2], 2410 ± 110 M⁻¹ s⁻¹ in data set [3] and 1240 ± 70 M⁻¹ s⁻¹ in data set [4].

In general, Km refers to the substrate concentration at which the rate is half of its maximum. What is called kcat is the number of substrate molecules converted per active site and unit of time at saturation. In general, kcat/Km refers to the turnover number divided by the Michaelis constant.
